Source: patent publication US20140248710A1
Ends that are not written are not given here.

Target: G-131-C affinity purified goat polyclonal antibody against the N-terminus of cardiac troponin I (BiosPacific, Emeryville, Calif.)
Assay: Competition FRET: the unlabeled N-terminal CTnI peptide is titrated against the labeled peptide-oligo conjugates for binding to G-131-C. The antibody concentration of the inset is not given. [inset]

IC50 (read off the curve): 40 nM
B1: Unlabeled N-terminal CTnI peptide (peptide)
peptide: MADGSSDAAREPRPAC
modifications: not fully specified
